Data taken from publication PMC10327126.

Biological target: GST-NTF2L-F33W (human)
Assay: SPR

## N_(1–25)-WT peptide (from UniProt P0DTC9 1-25)
  Kd: 1920 nM
